Measured values: patent US8617548B2 (priority 2006, dated 2013)
Like-named read-outs stand apart in the source and are kept apart here.

B1: ETI-204 (antibody, chains of the INN, looked up, V domains shown)
VH: QVQLQQSGPELKKPGASVKVSCKDSGYAFSSSWMNWVRQAPGQGLEWIGRIYPGDGDTNYNGKFQGRVTITADKSSSTAYMELSSLRSEDTAVYFCARSGLLRYAMDYWGQGTLVTVSS
VL: DIQMTQSPSSLSASVGDRVTITCRASQDIRNYLNWYQQKPGKAVKLLIYYTSRLLPGVPSRFSGSGSGTDYSLTISSQEQEDIGTYFCQQGNTLPWTFGQGTKVEIR

Legend:
B. anthracis = tested on: B. anthracis; set-up: species or system New Zealand White (NZW) rabbits; settings: rabbit, in vivo
[1] = cynomolgus monkey, in vivo

Molecule	Blood sample, B. anthracis positive culture, Study Day 34 (end of study) (B. anthracis)	Blood sample, B. anthracis positive culture, moribund euthanized or found dead (B. anthracis)	Tissue (spleen) sample, B. anthracis positive culture, Study Day 34 (end of study) (B. anthracis)	Tissue (spleen) sample, B. anthracis positive culture, moribund euthanized or found dead (B. anthracis)	Blood sample, B. anthracis positive culture, Study Day 34 (end of study) (B. anthracis; iv)	Tissue (spleen) sample, B. anthracis positive culture, Study Day 34 (end of study) (B. anthracis; iv)	bioavailability of IM anti-PA as compared to IV administration [1]	clearance (in words) [1]	volume of distribution at a steady-state (in words) [1]	AUC (0-inf) dose dependency (in words) ([1]; im, 10 mg/kg)
C[C@H]1COc2c(N3CCN(C)CC3)c(F)cc3c(=O)c(C(=O)O)cn1c23 [Levofloxacin, levofloxacin, reference compound]	0/4	8/8	0/4	7/8						
B1	0/4		0/4		0/4	0/4	83%	lower clearance	small volume of distribution	linear by dose
